B1: single chain triplebody sctb [123×ds16×33] (other)
chain: MADYKDIVMTQSHKFMSTSVGDRVNITCKASQNVDSAVAWYQQKPGQSPKALIYSASYRYSGVPDRFTGRGSGTDFTLTISSVQAEDLAVYYCQQYYSTPWTFGGGTKLEIKRGGGGSGGGGSGGGGSGGGGSEVKLVESGGGLVQPGGSLSLSCAASGFTFTDYYMSWVRQPPGKALEWLALIRSKADGYTTEYSASVKGRFTLSRDDSQSILYLQMNALRPEDSATYYCARDAAYYSYYSPEGAMDYWGQGTSVTVSSASGAGGGGSGGGGSGGGGSGGGGSAAADYKDIVLTQSPASLAVSLGQRATISCKASQSVDFDGDSFMNWYQQKPGQPPKLLIYTTSNLESGIPARFSASGSGTDFTLNIHPVEEEDTATYYCQQSNEDPYTFGCGTKLELKRGGGGSGGGGSGGGGSGGGGSQVTLKESGPGILQPSQTLSLTCSFSGFSLRTSGMGVGWIRQPSGKCLEWLAHIWWDDDKRYNPALKSRLTISKDTSSNQVFLKIASVDTADTATYYCAQINPAWFAYWGQGTLVTVSRGGGGSGGGGSGGGGSGGGGSMADYKDIVMTQSHKFLLVSVGDRVSITCKASQDVSTAVAWYQQKPGQSPKLLIYSASYRYTGVPDRFIGSGSGTDFTLTISSVQAEDLADYFCQQHYSTPLTFGAGTKLEIKRGGGGSGGGGSGGGGSSGGGSEVQLKESGPGLVAPSQSLSITCTVSGFPLTSYGVSWVRQPPGKGLEWLGVIWGDGSTNYHSALISRLSISKDNSKSQVFLKLNNLQTDDTATYYCARDTYYPYYAMDYWGQGTSVTVSS
notes: also called CD123×dsCD16×CD33
B2: CD123-specific scFv clone 43 (scFv)
scFv: MADYKDIVMTQSHKFMSTSVGDRVNITCKASQNVDSAVAWYQQKPGQSPKALIYSASYRYSGVPDRFTGRGSGTDFTLTISSVQAEDLAVYYCQQYYSTPWTFGGGTKLEIKRGGGGSGGGGSGGGGSGGGGSEVKLVESGGGLVQPGGSLSLSCAASGFTFTDYYMSWVRQPPGKALEWLALIRSKADGYTTEYSASVKGRFTLSRDDSQSILYLQMNALRPEDSATYYCARDAAYYSYYSPEGAMDYWGQGTSVTVSS
notes: Murine scFv from a phage display library, expressed in E. coli from pAK400, carries a hexahistidine tag

Assays:
[1] = molecular target: T1, CD123 and CD33 on double positive MOLM-13 cells (human, UniProt P26951 19-378; P20138 18-364); assay: calibrated flow cytometry on CD123 and CD33 double positive MOLM-13 cells (avidity)
T1 construct: whole, on cells; Two separate surface antigens on the same cell, not a complex; also called CD33/CD123
T1 sequence (P26951 19-378, chain 1 of 2): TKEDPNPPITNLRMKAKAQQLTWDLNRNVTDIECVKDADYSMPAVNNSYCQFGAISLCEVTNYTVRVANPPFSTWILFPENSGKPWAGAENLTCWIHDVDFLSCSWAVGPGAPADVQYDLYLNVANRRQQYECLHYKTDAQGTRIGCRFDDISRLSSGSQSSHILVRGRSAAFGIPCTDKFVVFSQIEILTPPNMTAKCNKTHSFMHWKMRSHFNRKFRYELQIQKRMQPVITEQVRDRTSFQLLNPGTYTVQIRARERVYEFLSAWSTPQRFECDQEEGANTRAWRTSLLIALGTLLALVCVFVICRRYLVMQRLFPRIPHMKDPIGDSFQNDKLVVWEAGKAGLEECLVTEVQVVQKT
T1 sequence (P20138 18-364, chain 2 of 2): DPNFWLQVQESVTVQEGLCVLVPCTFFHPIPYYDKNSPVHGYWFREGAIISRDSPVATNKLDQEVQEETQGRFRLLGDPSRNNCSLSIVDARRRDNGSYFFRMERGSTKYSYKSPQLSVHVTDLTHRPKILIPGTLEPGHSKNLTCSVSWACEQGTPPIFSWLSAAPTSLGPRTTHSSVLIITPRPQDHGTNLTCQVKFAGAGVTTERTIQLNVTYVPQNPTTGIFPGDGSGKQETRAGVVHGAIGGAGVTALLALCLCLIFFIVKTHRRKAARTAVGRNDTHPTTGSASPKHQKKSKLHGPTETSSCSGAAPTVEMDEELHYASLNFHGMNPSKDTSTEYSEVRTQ
Experimental: (§1) Immunofluorescence analysis was performed on a FACSCalibur instrument using CellQuest software (Becton Dickinson, Heidelberg, Germany) as described (Schwemmlein et al, 2006). Briefly, 1×10⁴ events were collected for each sample, and whole cells were analyzed using appropriate scatter gates to exclude cellular debris and aggregates. […] KD values were determined by calibrated flow cytometry, as described (Benedict at al, 1997). The highest mean fluorescence value was set to 100%, and all data points were normalized to this value. The experiments were repeated 6 times. The KD values were calculated using a nonlinear regression curve fit.

CD33 = molecular target: T2, CD33 (human, UniProt P20138 18-364); assay: calibrated flow cytometry on U937 cells
T2 construct: whole, on cells; also called CD33 on U937 cells
T2 sequence (P20138 18-364): as the sequence (P20138 18-364, chain 2 of 2) above
Experimental: as §1

human CD16 (FcγRIII) = molecular target: T3, human CD16 (FcγRIII) (human, UniProt P08637 17-254); assay: calibrated flow cytometry on CD16-transfected CHO cells
T3 construct: whole, on cells
T3 sequence (P08637 17-254): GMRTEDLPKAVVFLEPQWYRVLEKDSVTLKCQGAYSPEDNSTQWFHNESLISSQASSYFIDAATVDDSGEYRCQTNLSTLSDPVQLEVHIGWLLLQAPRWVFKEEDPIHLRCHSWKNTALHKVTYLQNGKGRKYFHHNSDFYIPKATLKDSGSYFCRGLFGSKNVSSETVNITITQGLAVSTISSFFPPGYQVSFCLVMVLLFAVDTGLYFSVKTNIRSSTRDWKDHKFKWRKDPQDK
Experimental: as §1

[2] = molecular target: T4, human CD123 (alpha subunit of the interleukin-3 receptor) (human, UniProt P26951 19-378); assay: calibrated flow cytometry on CD123-transfected 293 cells
T4 construct: whole, on cells; also called IL-3Rα
T4 sequence (P26951 19-378): as the sequence (P26951 19-378, chain 1 of 2) above
Experimental: as §1

[3] = molecular target: T4, human CD123 (alpha subunit of the …); assay: calibrated flow cytometry

| Binder | Kd [1] | Kd (CD33) | Kd (human CD16 (FcγRIII)) | Kd [2] | Kd [3] |
| --- | --- | --- | --- | --- | --- |
| B1 | 13.5 nM | 17.8 nM | 21.7 nM | 18.8 nM | – |
| B2 | – | – | – | – | 4.5 nM |
